Data as given in patent US20130156786A1 (Sanofi, published 2013).

Experiments:
[1] = target: T1, rat α2β1 integrin (whole blood) (rat, UniProt A0A0G2K470 27-1178; P49134 21-798); assay: FACS on whole blood, PE-coupled goat anti-mouse IgG
T1 construct: whole, on cells

[2] = target: dog α2β1 integrin (whole blood) (dog); assay: as above
[3] = target: rabbit α2β1 integrin (whole blood) (rabbit, UniProt G1T180 31-1185; A0A5F9C3C4 21-798); assay: as above
[4] = target: T2, mouse α2β1 integrin (whole blood) (mouse, UniProt Q62469 27-1178; P09055 21-798); assay: as above
T2 construct: whole, on cells

[5] = target: T3, α2 integrin on HUVEC cells; assay: MesoScale electrochemiluminescence binding to HUVEC cells coated on plates, serial dilutions of the mAb
T3 construct: The sheet names no target; also called HUVEC cells (promocell C12200, lot 6062203)
Procedure: (§1) To further assess the binding properties of the anti-α2 integrin mAb, a cell based assay with HUVEC cells (promocell C12200, lot 6062203) was performed. Cells were coated onto high binding plates (Meso Scale Discovery (MSD), L15XB-3) in PBS (10.000 cells/well) and incubated for 2 hrs at room temperature. Then the plates were emptied, washed twice with PBS and blocked with blocking solution (MSD, R93BA-4) for 90 min. After emptying and washing the plates again as described above, serial dilutions of anti α2-mAb were added and incubated with the cells for 1 h at room temperature. Following another washing step as above Read buffer T without surfactant (Meso scale Discovery, R92TD-2) was added. Electrochemilumenescence was read in a suitable device (Meso scale Discovery, Sector imager). Scatchard plot analysis was used to determine KD of the tested mAbs (see FIG. 1).

[6] = target: T3, α2 integrin on HUVEC cells; assay: Scatchard plot (B/F against B (RLU)) of MesoScale electrochemiluminescence binding to HUVEC cells coated on plates; drawn table: SD 0.01291, CV(%) 6.0, 95%CI [0.1899; 0.2425]
Procedure: as §1

T3 sequence (alpha, as listed by the source limits assumed): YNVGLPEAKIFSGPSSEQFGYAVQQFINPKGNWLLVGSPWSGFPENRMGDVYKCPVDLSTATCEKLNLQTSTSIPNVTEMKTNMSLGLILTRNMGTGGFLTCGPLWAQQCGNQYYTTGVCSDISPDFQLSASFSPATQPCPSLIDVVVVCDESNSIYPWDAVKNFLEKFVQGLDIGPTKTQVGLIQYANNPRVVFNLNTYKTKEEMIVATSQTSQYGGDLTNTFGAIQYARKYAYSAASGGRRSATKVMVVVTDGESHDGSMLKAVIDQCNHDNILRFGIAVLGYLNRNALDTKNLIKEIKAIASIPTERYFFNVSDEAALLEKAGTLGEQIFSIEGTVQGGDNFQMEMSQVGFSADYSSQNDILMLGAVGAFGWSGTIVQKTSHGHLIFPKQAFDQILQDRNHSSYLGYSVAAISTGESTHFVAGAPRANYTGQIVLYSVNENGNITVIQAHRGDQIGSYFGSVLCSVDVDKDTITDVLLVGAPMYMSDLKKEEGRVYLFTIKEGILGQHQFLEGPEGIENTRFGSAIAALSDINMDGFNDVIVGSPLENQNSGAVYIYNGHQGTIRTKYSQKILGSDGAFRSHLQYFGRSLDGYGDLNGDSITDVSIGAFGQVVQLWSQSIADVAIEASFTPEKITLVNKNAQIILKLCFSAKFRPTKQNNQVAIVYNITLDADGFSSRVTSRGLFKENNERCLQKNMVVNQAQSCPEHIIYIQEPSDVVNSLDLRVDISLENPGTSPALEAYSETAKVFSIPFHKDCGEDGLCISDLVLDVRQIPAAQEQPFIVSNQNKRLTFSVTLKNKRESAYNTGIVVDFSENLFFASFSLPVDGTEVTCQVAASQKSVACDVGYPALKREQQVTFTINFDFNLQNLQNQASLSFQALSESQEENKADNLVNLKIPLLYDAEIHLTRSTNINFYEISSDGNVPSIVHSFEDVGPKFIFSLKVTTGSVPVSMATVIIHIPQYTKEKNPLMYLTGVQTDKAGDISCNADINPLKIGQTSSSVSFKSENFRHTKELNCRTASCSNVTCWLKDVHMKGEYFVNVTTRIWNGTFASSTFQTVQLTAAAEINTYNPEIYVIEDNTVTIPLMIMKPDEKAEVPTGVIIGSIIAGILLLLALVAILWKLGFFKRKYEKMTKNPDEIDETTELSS
T1 sequence (chain, as listed by the source, chain 1 of 2): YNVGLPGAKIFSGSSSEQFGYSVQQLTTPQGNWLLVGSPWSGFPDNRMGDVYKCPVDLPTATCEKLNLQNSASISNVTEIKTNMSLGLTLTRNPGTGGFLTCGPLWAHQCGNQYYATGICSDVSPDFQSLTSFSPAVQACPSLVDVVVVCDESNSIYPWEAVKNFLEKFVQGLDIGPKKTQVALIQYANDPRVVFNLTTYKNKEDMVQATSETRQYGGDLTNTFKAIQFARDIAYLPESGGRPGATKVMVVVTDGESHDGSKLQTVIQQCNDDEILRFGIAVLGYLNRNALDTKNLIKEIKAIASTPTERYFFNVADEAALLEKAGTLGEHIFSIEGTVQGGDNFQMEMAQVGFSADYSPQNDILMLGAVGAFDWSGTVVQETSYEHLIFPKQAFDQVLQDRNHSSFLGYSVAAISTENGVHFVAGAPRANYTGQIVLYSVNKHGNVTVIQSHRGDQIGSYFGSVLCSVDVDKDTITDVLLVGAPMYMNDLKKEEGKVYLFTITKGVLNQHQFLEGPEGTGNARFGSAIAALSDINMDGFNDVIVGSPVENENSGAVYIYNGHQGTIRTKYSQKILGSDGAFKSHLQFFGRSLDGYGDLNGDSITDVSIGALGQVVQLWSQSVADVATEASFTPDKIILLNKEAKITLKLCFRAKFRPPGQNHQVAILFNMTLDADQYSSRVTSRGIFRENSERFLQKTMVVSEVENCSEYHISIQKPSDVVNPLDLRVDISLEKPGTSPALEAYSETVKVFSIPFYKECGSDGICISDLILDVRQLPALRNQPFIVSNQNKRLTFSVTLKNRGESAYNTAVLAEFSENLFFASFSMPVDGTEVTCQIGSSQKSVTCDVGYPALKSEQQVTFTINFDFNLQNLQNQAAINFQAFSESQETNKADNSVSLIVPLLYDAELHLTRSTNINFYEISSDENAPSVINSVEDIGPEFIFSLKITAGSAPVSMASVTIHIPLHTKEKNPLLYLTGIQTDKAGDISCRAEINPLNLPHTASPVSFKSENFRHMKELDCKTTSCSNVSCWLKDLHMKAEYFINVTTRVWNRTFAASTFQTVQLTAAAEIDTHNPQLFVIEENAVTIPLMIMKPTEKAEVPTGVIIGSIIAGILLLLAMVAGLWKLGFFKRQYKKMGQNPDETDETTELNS
T1 sequence (P49134 21-798, chain 2 of 2): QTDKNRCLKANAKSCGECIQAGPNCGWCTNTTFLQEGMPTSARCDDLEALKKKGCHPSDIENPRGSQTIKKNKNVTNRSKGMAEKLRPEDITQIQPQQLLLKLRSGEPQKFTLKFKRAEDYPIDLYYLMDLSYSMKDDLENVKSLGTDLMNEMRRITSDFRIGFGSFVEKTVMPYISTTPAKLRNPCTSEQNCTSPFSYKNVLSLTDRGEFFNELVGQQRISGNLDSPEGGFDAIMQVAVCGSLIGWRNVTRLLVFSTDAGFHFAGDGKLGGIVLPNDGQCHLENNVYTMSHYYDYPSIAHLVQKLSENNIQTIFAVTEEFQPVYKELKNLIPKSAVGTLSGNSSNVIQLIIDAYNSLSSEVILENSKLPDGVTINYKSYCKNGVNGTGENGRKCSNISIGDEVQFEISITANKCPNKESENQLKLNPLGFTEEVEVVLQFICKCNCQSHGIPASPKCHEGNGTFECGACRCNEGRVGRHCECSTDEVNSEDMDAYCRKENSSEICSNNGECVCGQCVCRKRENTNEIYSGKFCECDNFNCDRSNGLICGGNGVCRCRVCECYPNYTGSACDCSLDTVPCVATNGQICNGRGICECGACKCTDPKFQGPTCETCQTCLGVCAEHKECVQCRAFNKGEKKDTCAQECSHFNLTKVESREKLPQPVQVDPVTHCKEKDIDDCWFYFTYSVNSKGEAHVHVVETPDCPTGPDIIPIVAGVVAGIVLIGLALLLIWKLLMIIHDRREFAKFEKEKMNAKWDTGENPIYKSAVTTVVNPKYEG
Sequence of dog α2β1 integrin (whole blood) (dog) (alpha, as listed by the source limits assumed, chain 1 of 2): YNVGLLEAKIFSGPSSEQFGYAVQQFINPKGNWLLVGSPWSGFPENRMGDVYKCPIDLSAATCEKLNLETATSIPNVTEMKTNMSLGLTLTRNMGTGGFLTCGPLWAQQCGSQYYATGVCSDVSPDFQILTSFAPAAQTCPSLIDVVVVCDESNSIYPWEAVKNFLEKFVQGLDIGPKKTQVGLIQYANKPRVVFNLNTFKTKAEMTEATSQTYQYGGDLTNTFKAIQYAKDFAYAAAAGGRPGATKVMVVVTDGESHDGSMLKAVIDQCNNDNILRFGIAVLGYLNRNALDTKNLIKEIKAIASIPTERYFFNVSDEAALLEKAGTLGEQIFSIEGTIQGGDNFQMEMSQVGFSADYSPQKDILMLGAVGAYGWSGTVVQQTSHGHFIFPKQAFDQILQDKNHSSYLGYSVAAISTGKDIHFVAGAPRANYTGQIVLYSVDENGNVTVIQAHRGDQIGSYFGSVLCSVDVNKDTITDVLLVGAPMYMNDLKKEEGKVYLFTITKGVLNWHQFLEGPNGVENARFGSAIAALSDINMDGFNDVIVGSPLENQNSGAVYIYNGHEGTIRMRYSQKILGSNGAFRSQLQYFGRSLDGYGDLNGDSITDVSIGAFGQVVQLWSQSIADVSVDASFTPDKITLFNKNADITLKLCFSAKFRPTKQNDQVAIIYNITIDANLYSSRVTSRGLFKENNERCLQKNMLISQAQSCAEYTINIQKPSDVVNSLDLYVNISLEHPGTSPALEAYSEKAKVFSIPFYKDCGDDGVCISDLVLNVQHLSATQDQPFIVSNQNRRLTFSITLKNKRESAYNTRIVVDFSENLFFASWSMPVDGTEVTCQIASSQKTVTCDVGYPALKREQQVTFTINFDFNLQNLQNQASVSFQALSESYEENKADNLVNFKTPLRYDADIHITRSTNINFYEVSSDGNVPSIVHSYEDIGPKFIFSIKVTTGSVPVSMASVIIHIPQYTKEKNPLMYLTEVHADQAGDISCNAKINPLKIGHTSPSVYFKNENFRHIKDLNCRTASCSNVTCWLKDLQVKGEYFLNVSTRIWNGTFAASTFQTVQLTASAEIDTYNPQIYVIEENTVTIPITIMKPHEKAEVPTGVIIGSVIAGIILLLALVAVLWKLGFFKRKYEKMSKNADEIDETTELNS
Sequence of dog α2β1 integrin (whole blood) (dog) (beta, as listed by the source limits assumed, chain 2 of 2): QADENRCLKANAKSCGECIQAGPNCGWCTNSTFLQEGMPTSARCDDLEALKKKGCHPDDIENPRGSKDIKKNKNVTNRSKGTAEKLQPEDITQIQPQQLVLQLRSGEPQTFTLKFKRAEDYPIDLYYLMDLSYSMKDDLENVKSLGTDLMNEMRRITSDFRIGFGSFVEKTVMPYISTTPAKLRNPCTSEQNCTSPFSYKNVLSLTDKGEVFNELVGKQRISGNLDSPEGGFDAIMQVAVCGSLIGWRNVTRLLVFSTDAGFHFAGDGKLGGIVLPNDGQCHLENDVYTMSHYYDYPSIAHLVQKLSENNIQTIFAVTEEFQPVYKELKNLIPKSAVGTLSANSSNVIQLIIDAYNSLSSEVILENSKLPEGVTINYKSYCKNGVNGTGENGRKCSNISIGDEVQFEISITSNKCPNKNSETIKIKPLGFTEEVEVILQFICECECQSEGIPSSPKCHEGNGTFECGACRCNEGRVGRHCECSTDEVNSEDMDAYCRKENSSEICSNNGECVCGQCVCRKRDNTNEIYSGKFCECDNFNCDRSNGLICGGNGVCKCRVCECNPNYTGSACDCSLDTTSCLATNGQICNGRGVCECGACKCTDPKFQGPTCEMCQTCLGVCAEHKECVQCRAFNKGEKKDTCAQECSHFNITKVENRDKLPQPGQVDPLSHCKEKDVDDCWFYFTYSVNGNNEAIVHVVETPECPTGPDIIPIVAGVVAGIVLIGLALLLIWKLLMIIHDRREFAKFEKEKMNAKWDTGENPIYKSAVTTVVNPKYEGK

B1: anti-α2 integrin mAb purified from hybridoma supernatant (murine, mCk, mIgG2a) (antibody)
heavy: QVQLHQPGAELVKPGAPVKLSCKASGYTFTSYWMNWVKQRPGRGLEWIGRIDPSDSETHYNQKFKDKATLTVDKSSSTAYIQLSSLTSEDSAVYYCAKVGRGYFDYWGQGTTLTVSSAKTTAPSVYPLAPVCGDTTGSSVTLGCLVKGYFPEPVTLTWNSGSLSSGVHTFPAVLQSDLYTLSSSVTVTSSTWPSQSITCNVAHPASSTKVDKKIEPRGPTIKPCPPCKCPAPNLLGGPSVFIFPPKIKDVLMISLSPIVTCVVVDVSEDDPDVQISWFVNNVEVHTAQTQTHREDYNSTLRVVSALPIQHQDWMSGKEFKCKVNNKDLPAPIERTISKPKGSVRAPQVYVLPPPEEEMTKKQVTLTCMVTDFMPEDIYVEWTNNGKTELNYKNTEPVLDSDGSYFMYSKLRVEKKNWVERNSYSCSVVHEGLHNHHTTKSFSRTPGK
light: NIVLTQSPASLAVSLGQRATISCRASESVESYGNSFIYWYQQKPGQAPKLLIYLASNLASGVPARFSGSGSRTDFTLTIDPVEADDAATYYCQQNNEDPYTFGGGTKLEIKRADAAPTVSIFPPSSEQLTSGGASVVCFLNNFYPKDINVKWKIDGSERQNGVLNSWTDQDSKDSTYSMSSTLTLTKDEYERHNSYTCEATHKTSTSPIVKSFNRNEC
notes: also called α2-integrin mAb from hybridoma; α2 mAb from hybridoma supernatant
- binding result [1]: no binding
- binding result [2]: no binding
- binding result [3]: no binding
- binding result [4]: no binding
- EC50 (read off the curve) [5]: ~0.2 nM
- Kd [6]: 0.215 nM
